The values below come from patent US20090317363A1.

Substitutions are numbered along the chain they refer to.

Sequences and labels used below:
B1: RANTES derivative: signature sequence SEQ ID NO: 24 fused to positions 10-68 of native RANTES (SEQ ID NO: 1) (ligand)
chain: QGPPLMSLQVCCFAYIARPLPRAHIKEYFYTSGKCSNPAVVFVTRKNRQVCANPEKKWVREYINSLEMS
B2: RANTES derivative: signature sequence SEQ ID NO: 28 fused to positions 10-68 of native RANTES (SEQ ID NO: 1) (ligand)
chain: B1 chain with L5G, M6S, S7W, L8S, Q9S
B3: RANTES derivative: signature sequence SEQ ID NO: 29 fused to positions 10-68 of native RANTES (SEQ ID NO: 1) (ligand)
chain: B1 chain with M6G, L8M, Q9G, V10P
B4: RANTES derivative: signature sequence SEQ ID NO: 26 fused to positions 10-68 of native RANTES (SEQ ID NO: 1) (ligand)
chain: B1 chain with P4L, L5S, M6G, S7W

In one assay the target is CCR5 (UniProt P51681). The experiment in a line: cell-based or functional assay.
On to B1, for which the CCR5 sequestration (%) (% of control surface CCR5) was 35; the CCR5 signalling (%) (% of Emax of PSC-RANTES) was 2.4; the anti-HIV potency (IC50, nM) by cell fusion assay was found to be 0.03 nM; the anti-HIV potency (IC50, nM) by viral replication assay was determined as 0.174 nM.
The corresponding values for B2 are 59, 45, 0.03 nM and 0.213 nM.
B3 showed a CCR5 sequestration (%) (% of control surface CCR5) of 36; a CCR5 signalling (%) (% of Emax of PSC-RANTES) of 22.6; an anti-HIV potency (IC50, nM) by cell fusion assay of 0.39 nM.
B4: the CCR5 sequestration (%) (% of control surface CCR5) amounted to 41; the CCR5 signalling (%) (% of Emax of PSC-RANTES) amounted to 9.4; the anti-HIV potency (IC50, nM) by cell fusion assay is 0.58 nM.

The next assay deals with CCR5 (UniProt P51681). The experiment in a line: cell-based or functional assay. The source holds these as a separate data set.
“NNY-RANTES (n-nonanoyl-RANTES(2-68)) (from UniProt P13501 25-91) (ligand)”: the CCR5 sequestration (%) (% of control surface CCR5) came out at 77; the CCR5 signalling (%) (% of Emax of PSC-RANTES) turned out to be 84.5; the anti-HIV potency (IC50, nM) by cell fusion assay was determined as 0.29 nM.
In turn, PSC-RANTES (ligand) displayed a CCR5 sequestration (%) (% of control surface CCR5) of 75; a CCR5 signalling (%) (% of Emax of PSC-RANTES) of 100; an anti-HIV potency (IC50, nM) by cell fusion assay of 0.02 nM; an anti-HIV potency (IC50, nM) by viral replication assay of 0.281 nM.
Molecule “Met-RANTES (from UniProt P13501 24-91) (ligand)” registered a CCR5 sequestration (%) (% of control surface CCR5) of 26; a CCR5 signalling (%) (% of Emax of PSC-RANTES) of 15; an anti-HIV potency (IC50, nM) by cell fusion assay of 75.1 nM.
The corresponding values for “AOP-RANTES, the aminooxypentane oxime of [glyoxylyl]1RANTES(2-68) (from UniProt P13501 25-91) (ligand)” are 71, 80.7 and 1.12 nM.
